Assay [1] addresses Type I IFN receptor (IFNAR1 and IFNAR2) on HEK-Blue 293 reporter cells (UniProt P17181). Put plainly: cell-based or functional assay.
Assay [2] addresses Type II IFN receptor (IFNGR1 and IFNGR2) on HEK-Blue 293 reporter cells (UniProt P15260). The assay is described as follows: cell-based or functional assay.

The values that follow come from patent US20240398902A1.

Type I IFN receptor (IFNAR1 and IFNAR2) on HEK-Blue 293 reporter cells, sequence (P17181 28-557 limits assumed, chain 1 of 2): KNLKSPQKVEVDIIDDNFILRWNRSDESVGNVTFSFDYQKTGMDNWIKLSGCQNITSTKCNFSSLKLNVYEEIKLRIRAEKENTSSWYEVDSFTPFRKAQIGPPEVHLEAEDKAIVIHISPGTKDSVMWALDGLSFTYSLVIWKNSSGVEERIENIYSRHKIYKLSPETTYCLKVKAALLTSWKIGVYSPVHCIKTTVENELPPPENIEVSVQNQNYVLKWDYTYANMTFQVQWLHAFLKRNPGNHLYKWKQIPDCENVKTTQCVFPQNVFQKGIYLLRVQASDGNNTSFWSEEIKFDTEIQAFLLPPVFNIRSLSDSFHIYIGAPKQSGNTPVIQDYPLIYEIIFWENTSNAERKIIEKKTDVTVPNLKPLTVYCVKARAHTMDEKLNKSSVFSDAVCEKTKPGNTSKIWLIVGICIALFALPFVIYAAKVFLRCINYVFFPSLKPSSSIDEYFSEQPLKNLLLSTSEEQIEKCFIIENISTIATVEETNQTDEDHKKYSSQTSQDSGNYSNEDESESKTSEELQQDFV
Type I IFN receptor (IFNAR1 and IFNAR2) on HEK-Blue 293 reporter cells, sequence (P48551 27-515 limits assumed, chain 2 of 2, further chain): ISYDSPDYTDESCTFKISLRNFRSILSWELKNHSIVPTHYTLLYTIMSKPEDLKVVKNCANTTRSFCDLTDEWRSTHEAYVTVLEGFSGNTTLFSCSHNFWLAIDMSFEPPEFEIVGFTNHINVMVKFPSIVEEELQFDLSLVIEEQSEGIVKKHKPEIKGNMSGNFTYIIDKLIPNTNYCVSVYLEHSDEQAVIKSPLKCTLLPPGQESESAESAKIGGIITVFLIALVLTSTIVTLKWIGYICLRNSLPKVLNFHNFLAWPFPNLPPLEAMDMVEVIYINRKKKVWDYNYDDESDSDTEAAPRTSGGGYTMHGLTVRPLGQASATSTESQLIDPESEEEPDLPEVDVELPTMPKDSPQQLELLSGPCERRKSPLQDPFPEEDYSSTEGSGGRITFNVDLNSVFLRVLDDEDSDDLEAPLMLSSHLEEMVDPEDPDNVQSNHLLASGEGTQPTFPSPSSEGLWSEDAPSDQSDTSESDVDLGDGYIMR
Type II IFN receptor (IFNGR1 and IFNGR2) on HEK-Blue 293 reporter cells, sequence (P15260 18-489 limits assumed, chain 1 of 2): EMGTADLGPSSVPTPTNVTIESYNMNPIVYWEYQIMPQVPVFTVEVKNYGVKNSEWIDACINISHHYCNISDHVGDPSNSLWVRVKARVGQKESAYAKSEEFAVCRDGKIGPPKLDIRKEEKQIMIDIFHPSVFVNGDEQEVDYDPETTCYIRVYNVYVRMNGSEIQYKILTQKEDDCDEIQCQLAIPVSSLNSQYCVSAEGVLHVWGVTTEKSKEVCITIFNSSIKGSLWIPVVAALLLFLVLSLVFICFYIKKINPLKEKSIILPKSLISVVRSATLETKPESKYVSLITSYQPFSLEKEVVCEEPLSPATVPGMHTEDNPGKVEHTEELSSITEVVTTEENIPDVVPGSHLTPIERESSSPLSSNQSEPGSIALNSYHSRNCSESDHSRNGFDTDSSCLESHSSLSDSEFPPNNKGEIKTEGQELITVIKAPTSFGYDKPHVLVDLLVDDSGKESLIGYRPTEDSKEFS
Type II IFN receptor (IFNGR1 and IFNGR2) on HEK-Blue 293 reporter cells, sequence (P38484 22-337 limits assumed, chain 2 of 2, further chain): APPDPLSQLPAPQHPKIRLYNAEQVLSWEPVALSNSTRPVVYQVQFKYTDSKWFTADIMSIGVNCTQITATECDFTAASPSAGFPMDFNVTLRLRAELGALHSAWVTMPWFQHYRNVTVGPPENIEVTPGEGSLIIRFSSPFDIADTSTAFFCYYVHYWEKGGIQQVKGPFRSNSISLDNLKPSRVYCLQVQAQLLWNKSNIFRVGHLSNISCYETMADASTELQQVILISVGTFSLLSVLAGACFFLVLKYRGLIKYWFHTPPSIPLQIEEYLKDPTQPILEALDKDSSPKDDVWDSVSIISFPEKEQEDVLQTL

On to “soluble IFNβ (from UniProt P01574 22-187) (ligand)”, for which, in assay [1], the EC50 of SEAP reporter response, HEK-Blue IFN reporter cells came out at 0.9 pM and the MHC I (HLA I) expression, MFI by FACS against untreated 293T cells (fold increase) was determined as 9.

In the case of “soluble IFNγ (from UniProt P01579 24-166) (ligand)”, in assay [2], the EC50 of SEAP reporter response, HEK-Blue IFN reporter cells worked out at 7.1 pM.
